Source: article PMC7022315

Biological target: Stx2k B-subunit (of the Stx2kE167Q toxoid) (Escherichia coli)
Assay: crystal structure

## Stx2k B-subunit (of the Stx2kE167Q toxoid) (natural protein)
  stoichiometry N: 5
